Earlier results as cited in PMC5648805.

How the values were obtained:
[1] = target: Orai1 (Homo sapiens) (UniProt Q96D31)
[2] = target: Calmodulin (Homo sapiens) (UniProt P0DP23); assay: ITC

UniProt Q96D31, sequence (Q96D31 whole entry): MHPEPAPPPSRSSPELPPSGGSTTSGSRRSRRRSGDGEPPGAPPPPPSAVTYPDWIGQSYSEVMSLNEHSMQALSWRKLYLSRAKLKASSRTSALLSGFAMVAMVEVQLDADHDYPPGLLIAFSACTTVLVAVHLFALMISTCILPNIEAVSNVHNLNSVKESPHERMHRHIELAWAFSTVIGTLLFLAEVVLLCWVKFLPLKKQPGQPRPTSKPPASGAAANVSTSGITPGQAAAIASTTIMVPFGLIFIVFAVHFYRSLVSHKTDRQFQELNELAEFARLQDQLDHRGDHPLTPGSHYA

Row | Kd [1] | Kd [2] | Substance
1 | 200 µM | – | STIM1 SOAR (from UniProt Q13586)
2 | – | 1 µM | STIM1 polybasic peptide polybasic region (from UniProt Q13586)
